Patent publication US20150104459A1 (published 2015)

B1: TCN-528 (5087_P17) (antibody, V domains shown)
VH: QVQLVQSGSEVKKPGASVKVSCKASGYTFTNYDINWIRQAPGQGLEWMGWINPNSGTTGSAQRFQGRVTITVDTSITTVYMELSSLRSDDTAIYYCARGRELLRLQHFLTDSQSERRDCFDPWGQGTLVTVSS
VL: DIQMTQSPSSLSASVGDRVTITCRANQDIGIYLNWYQQNPGKVPKLLLHGASSLQGGVPSRFSASGSGTDFTLTIHSLQPEDLATYYCQQSRRLPYTFGQGTRVELK
B2: TCN-533 (5256_A17) (antibody, V domains shown)
VH: QVQLVQSGADVKKPGSSVTVSCKASGGSFSNYGINWVRQAPGQGLEWMGGIIPLINAPNYAPKFQGRVTITADMFSNIVSLQLTSLRTDDTAVYYCARRKMTTAIDYWGQGTLVTVSS
VL: QPVLSQPPSASASLGASVTLTCTLSSGFDNYQVAWYQQRPGKGPRFVMRVGNGGNVASKGDGIPDRFSVSGSGLNRYLTIKNIQEDDESDYYCGADHGSGNNFVSPYVFGGGTKLTVL
B3: TCN-546 (5089_L08) (antibody, V domains shown)
VH: QVQLQQWGAGLLKPSETLSLTCGVYGGSLSDYYWSWIRQPPGKGLEWIGEINHSGGTNYNPSLKRRVTISVDTSKKQFSLKMNSVTAADTAVYYCARGTDPDTEVYCRAGNCAAFDFWGQGTLVTVSS
VL: EIVLTQSPGTLSLSPGERATLSCRASHFVIGRAVAWYQQKPGQAPRLLIYGASSRATGIPDRFSGSGSGTDFTLTISRLETEDFAVFYCQHYGSSPRYAFGQGTKLEIK
B4: TCN-530 (5248_H10a) (antibody, V domains shown)
VH: QVQLVQSGAEVRKPGSSVKVSCKASGGPFMSYAIGWVRQAPGQGLEWMGGINPVFGRPHYAQKFQGRVTIATDDSTKTSYMELSSLTSEDTGMYYCASRYSRSSPGTFESWGQGTLVTVSS
VL: EIVMTQFPATLSVSPGERVTLSCRASQSVSNNLAWYQQKPGQPPRLLIYDASTRATGVPAKFSGTGSGTEFTLSISSLQSEDFAVYYCQQYHNWPPSYSFGLGTKLEIK
B5: TCN-531 (5091_H13) (antibody, V domains shown)
VH: EVQLVESGGDLVQPGRSLKLSCTGSGFTFGDYGVTWVRQAPGKGLEWVGFIRTRPWGGTADTAASVKGRFTISRDDSKSLAYLQMNSLKTEDTAVYYCCRDAPPNVEVASMTNWYFDLWGRGTLVTVSS
VL: DIQLTQSPSSLSASVGDRVTITCRASQGILNCLAWYQQKPGKVPNLLMYAASTLQSGVPSRFSGSGFGTDFTLTISSLQPEDVATYYCQTYGGVSTFGGGTKVEIR
B6: TCN-543 (5081_G23) (antibody, V domains shown)
VH: QVHLVQSGAEVRKPGDSVKVSCKTSGYTFSTYPVAWVRQVPGQGLEWMGWISTYNGNTNFAQNFQGRVTLTTDTTTNTAYMEVRSLKFDDTAVYYCARVEGSYRDFWNNQNRFDPWGQGTLVTVSS
VL: SYVLTQPPSVSVAPGQTARISCGGSNIGGKSVHWYQQKPGQAPVLVVYDDSGRPSGIPERFSGSNSGDTATLTISRVEAGDEADYFCQVWDNFGGVFGTGTKVTVL
B7: TCN-540 (5060_F05) (antibody, V domains shown)
VH: QVQLVQSGGGVVQPGRSLRLSCAASGFTFSSYAMHWVRQAPGKGLEWVAIISYDGNDQYYTDSVKGRFTISRDSSKVYLQMHRLRPEDTAVYYCAKEFETSGYFHGSFDYWGQGILVTVSS
VL: QSALTQPASVSGSPGQSITISCTGTSSDVGGYNYVSWYQQHPGKAPKLLIYEVTNWPSGVSNRFSGSKSGNTASLTISGLQAEDEADYYCSSYAGSSTWVFGGGTRVTVL
B8: TCN-542 (5079_A16) (antibody, V domains shown)
VH: QVQLQESGPGLVKPSQTLSLTCTVSGGSISSGNYYWNWVRQHPGKGLEWIGYIYYRGSTFYNPSLKSRVTISIDTSKNQFSLRLSSVTAADTAVYYCAKDTRSSLDNYQYGMDVWGQGTTVTVSS
VL: QTVVTQEPSLTVSPGGTVTLTCASSTGAVTSSYFPNWFQQKPGQAPRPLIYSTTIRHSWTPARFSGSLLGGKAALTLSGVQPEDEADYYCLLYSGGDPVAFGGGTKLTVL
B9: TCN-537 (3194_D21) (antibody, V domains shown)
VH: QVQLQQWGSGLLKPSETLSLTCAVYGGSFRDDYWTWIRQPPGKGLEWIGEINHSGRTNYNPSLKSRVTISVDTSLKQFSLKVISVTAADTAVYYCARGTSHVSRYFDWLPPTNWFDPWGQGTQVTVSS
VL: DIVLTQSPGTLSLSPGERATLSCRASQSVSSSYLAWYQQKPGQAPRLVMYGAATRATGIPDRFSGSGSGPDFTLTISRLEPEDFAMYYCQQYGNSPITFGQGTRLEIK
B10: TCN-529 (5297_H01) (antibody, V domains shown)
VH: QITLRESGPTLVKPTQTLTLTCTFSGFSLSTNGVNVGWIRQPPGKALEWLALIYWDDDKRYSPSLKRRLTITKDTSKNQVVLTLTNMDPVDTATYYCAHRPDFYGDFEYWGPGTLVTVSS
VL: QSALTQPASVSGSPGQSITISCTGSSSDIGGYNYVSWYQQHPGKAPKLMIYDVNNRPSGVSNRFSGSKSGNTASLTISGLQTDDEADYYCGSYTGSPHYVFGTGTKVTVL
B11: TCN-539 (5056_A08) (antibody, V domains shown)
VH: QVQLVESGGGVVQPGRSLRLSCAASEITFITYAMHWVRQAPGKGLEWVALISDDGSNKFYADSVKGRFTISRDNSKNTLYLQMNSLRAEDTAAYYCAREGVYFDSGTYRGYFDYWGQETLVTVSS
VL: EIVLTQSPATLSLSPGERATLSCRASQSVSSYLAWYQQKPGQAPRLLIYDASNRATGIPARFSGSGSGTDFTLTISSLEPEDFAVYYCQQRSHWPPITFGQGTRLEIK
B12: TCN-536 (5095_N01) (antibody, V domains shown)
VH: QVQLQQWGAGLLKPSETLSLTCAVYGGSFSVSGYYWSWIRQPPGRGLEWIGEISHGGSTNYNPSLKSRVTISVDTTKNQFSLRLSSVTAADTAVYYCARGTDPDTEVYCRVGNCAAFDYWGQGSLVTVSS
VL: EIILAQSPGTLSLSPGERATLSCRASQFVSTRSLAWYQQRPGQAPRLLIYGASSRATGIPDRFSGSGSGTDFTLTISRLEPEDFAVYYCQHYGYSPRYAFGQGSKVEIK
B13: TCN-538 (3206_O17) (antibody, V domains shown)
VH: QITLKESGPTLVKPTQTLTLTCVFSGFSLSITGVRVGWIRQPPGKALEWLALISWDDEKHYSPSLQSRLTITKDTSKNQVVLTMTNLDPVDTATYYCARSTDRGHVLRYFGWMLPGDAFDVWGQGTMVTVSS
VL: DIVMTQSPDFLPVSLGERATINCKSSQRVLYSSNNKNYLAWYQLKPGQPPKLIIYWASTRESGVPDRFSGSGSGTEFTLTISSLQAEDVAVYYCQQYYSRPYTFGQGTKLEIK
B14: TCN-522 (3212_I12) (antibody, V domains shown)
VH: QVQLQQWGAGLLKPSETLSLTCTVSGGSLTDYSWNWIRQPPGKGLEWIGDTLHNGYTNYNPSLRGRVSISIDTSKNQVSLRLTSVTAADTALYYCARGSGGYGGFDYFGKLRTWDFWGQGTLVTVSS
VL: DIQLTQSPSSLSASVGDRVTITCRASQGIRNDLGWYQQKPGNAPKRLIFGASSLQSGVPSRFSGSGSGTEFTLTISSLQPEDFATYYCLQHNSYPYTFGQGTKLEIK
B15: TCN-526 (5084_C17) (antibody, V domains shown)
VH: EVLMVESGGGLVQPGGSVRLSCVASGFSFSSHWMTWVRQAPGKGLEWVANIEDDGGDKYYVDSVKGRFIISRDNAKNSVYLQMNSLRAEDTAVYFCARGSGSSDRSDYDPHYYYYLDVWGKGATVTVSS
VL: DIQLTQSPSSLSASVGDRVTITCRASQSISRYLNWYQQKPGKAPKLLLFAASTLLDGVPSRFSGSGSGTDFTLTISSLQPEDFATYYCQRNHSPSWTFGQGTRVEIK
B16: TCN-534 (5249_B02) (antibody, V domains shown)
VH: QVQLVQSGAEVKKPGSSVKVSCRESGGTFNGYTITWVRQAPGQGLEWMGGIIPMMGTVNYAQKLQGRVTITTDYFTKTAYMDLNNLRSEDTAMYYCVKIRYTGQQLLWGQGTLVTVSS
VL: DIQMTQSPSTLSASIGDRVTITCRASQSIASWLAWYQQKPGKAPKLLIYEAVNLESGVPSRFSGSGSGTDFTLTISSLQPDDFATYFCQHYGTISQTFGGGTKVEIK
B17: TCN-532 (5262_H18) (antibody, V domains shown)
VH: QVQLQESGPGLVKPSETLSLTCTVSGGSVSSETYYWSWIRQPPGKGLEWIGYIYYIGNTDYRPSLKSRVTISLDTSKNQFSLKLSSVTAADTAVYYCARGAYYDSSGYPAFYIWGQGTMVTVSS
VL: QSVLTQPPSVSGAPGQRVTISCTGSSSNIGSDYDVHWYKQLPGTAPKLLIFGNSNRPSGVPDRFSGSKSGTSASLAITGLQAEDEADYYCQSYDSSLSGFHVFGSGTKVTVL
B18: TCN-544 (5082_A19) (antibody, V domains shown)
VH: QVQLQESGPGLVKPSETLSLTCTVSRGSIGHYFWSWIRQPPGKGLEWIGYISYSGSTKYNPSLRSRVTISVDTSKNQFSLNLNSVTATDTALYYCAREDYDILTGAGPGMEVWGQGTTVTVSS
VL: QSMLTQPPSASGTPGQRVTISCSGSSSNIGSNTVNWFKHLPGTAPKLLIYRNDLRPSGVPDRFSGSKSGTSASLAISGLQSEDEADYYCATWDDSLNGFYVFGTGTKVTVL
B19: TCN-527 (5086_C06) (antibody, V domains shown)
VH: QVQLQESGPGLVKPSETLSLNCAVSGGSISNYYWSWIRQPPGKGLEWIGYISYNGRPKYNPSLTSRVTISVDTSKDQFSLELRSVTAADTALYYCARETRFGELLSPYDAFEIWGQGTMVTVSS
VL: DIQMTQSPSSLSASVGDRVTMTCRASQNIRSYLNWYQQRPGTAPKLLIYAASTLHSGVPSRFSGGGSGTDFTLTINNLQPEDFASYYCQQSYDNPQTFGQGTKVEIK
B20: TCN-545 (5082_I15) (antibody, V domains shown)
VH: QVQLQQWGAGLLKPSETLSLSCAVFGGSFSDYYWTWIRQPPGKGLEWIGEIKHSGRTNYNPSLESRVTISVDTSKNQFSLKLSSVTAADTAIYYCARGTDPDTEGYCRSGSCSAFDFWGQGTLVTVSS
VL: EIVLTQSPGTLSLSPGERATLSCRASHFVNYRSLAWYQQTPGQVPRLLIYGASTRATGIPDRFSGSGSGTDFTLTISRLEPEDFAVYFCQQYGGSPRYTFGQGTRLEIK
B21: TCN-535 (5246_P19) (antibody, V domains shown)
VH: QVQLVQSGSEVKKPGTSVKVSCTASGSVFTNYGISWVRQAPGQGLEWMGGIIPLFGAAKYAQKFQGRVTITADESTKTVYMELSRLTSKDTAIYFCAKAPRVYEYYFDQWGQGTPVTVSS
VL: EIVLTQSPGTLSLSPGERATLSCRASQSVSSSQLAWYQQKPGQAPRLIIYGASTRATGIPDRFSGSGSGTDFTLTIGRLEPEDFAVFFCQQYSTSPPTFGQGTKVDFK

The binders below were run against Hemagglutinin of influenza A/Solomon Islands/3/06 (H1N1) on whole virions (Influenza A virus A/Solomon …) (assay: cell-based or functional assay).

Row | Binder | % Neutralization
1 | B1 | 0%
2 | B2 | 56%
3 | B3 | 0%
4 | B4 | 64%
5 | B5 | 65%
6 | B6 | 100%
7 | B7 | 100%
8 | B8 | 98%
9 | B9 | 89%
10 | B10 | 0%
11 | B11 | 97%
12 | B12 | 75%
13 | B13 | 35%
14 | B14 | 33%
15 | B15 | 0%
16 | B16 | 86%
17 | B17 | 11%
18 | B18 | 95%
19 | B19 | 12%
20 | B20 | 98%
21 | B21 | 82%
